Data on 9 molecules can be found in publication PMC3760798, “Analysis of the RelA:CBP/p300 Interaction Reveals Its Involvement in NF-κB-Driven Transcription” (PLoS Biology, 2013).

The labels stand for the following.
B1: GB1-tagged RelA fragment 441–508 wt (domain or fragment, mouse, UniProt Q04207 441-508, looked up)
chain: LQFDADEDLGALLGNSTDPGVFTDLASVDNSEFQQLLNQGVSMSHSTAEPMLMEYPEAITRLVTGSQR
notes: RelA (p65), mouse, residues 441-508; also called N-terminal truncation to remove residues Lys425–His440; source: expressed as His6-GB1 fusion, purified; His6-tag cleaved by TEV protease; not shown: His6, N-terminal, cleaved; GB1, N-terminal, kept
B2: TAZ1 domain of mouse CBP (residues 340–439) (domain or fragment)
chain: not shown
notes: Isotopically labelled in some NMR samples; also called CBP–TAZ1; CH1; source: purified
B3: GST-RelA fragment (Lys425–Pro490) Met483Ala (domain or fragment, mouse, UniProt Q04207 425-490, looked up)
chain: KSTQAGEGTLSEALLHLQFDADEDLGALLGNSTDPGVFTDLASVDNSEFQQLLNQGVSASHSTAEP
notes: also called RelA–TA2 M483A (GST); source: E. coli BL21(DE3), purified (glutathione sepharose); not shown: GST, N-terminal, kept
B4: GST-RelA fragment (Lys425–Pro490), wild type (domain or fragment, mouse, UniProt Q04207 425-490, looked up)
chain: B3 chain with A59M
notes: also called GST-RelA–TA2; construct T11; source: E. coli BL21(DE3), purified (glutathione sepharose); not shown: GST, N-terminal, kept
B5: RelA–TA2 (residues 425–490), tag cleaved (domain or fragment, mouse, UniProt Q04207 425-490, looked up)
chain: B3 chain with A59M
notes: 15N/13C labelled for NMR; source: expressed as His6-GB1 fusion, purified (Ni-NTA under denaturing conditions, thrombin cleavage, reverse-phase HPLC); not shown: His6, N-terminal, cleaved; GB1, N-terminal, cleaved
B6: GB1-tagged RelA–TA2 fragment 425–508 wt (domain or fragment, mouse, UniProt Q04207 425-508, looked up)
chain: KSTQAGEGTLSEALLHLQFDADEDLGALLGNSTDPGVFTDLASVDNSEFQQLLNQGVSMSHSTAEPMLMEYPEAITRLVTGSQR
notes: GB1 is the 58-residue B1 domain of streptococcal protein G, kept for concentration determination; also called RelA–TA2 fragment of Lys425–Arg508; source: expressed as His6-GB1 fusion, purified; His6-tag cleaved by TEV protease; not shown: His6, N-terminal, cleaved; GB1, N-terminal, kept
B7: GB1-tagged RelA–TA2 fragment 425–508 (L449A) (domain or fragment, mouse, UniProt Q04207 425-508, looked up)
chain: B6 chain with L25A
notes: also called Leu449Ala; source: expressed as His6-GB1 fusion, purified; His6-tag cleaved by TEV protease; not shown: His6, N-terminal, cleaved; GB1, N-terminal, kept
B8: GB1-tagged RelA–TA2 fragment 425–508 (L465A) (domain or fragment, mouse, UniProt Q04207 425-508, looked up)
chain: B6 chain with L41A
notes: also called Leu465Ala; source: expressed as His6-GB1 fusion, purified; His6-tag cleaved by TEV protease; not shown: His6, N-terminal, cleaved; GB1, N-terminal, kept
B9: GB1-tagged RelA–TA2 fragment 425–508 (S467D) (domain or fragment, mouse, UniProt Q04207 425-508, looked up)
chain: B6 chain with S43D
notes: also called RelA(Ser467Asp); phosphomimetic mutant; source: expressed as His6-GB1 fusion, purified; His6-tag cleaved by TEV protease; not shown: His6, N-terminal, cleaved; GB1, N-terminal, kept

Positions count from the first letter of the chain named. In names and notes the source's numbering stands.

What all share (details): both partners purified
Assay [1] addresses B2. Nature of the assay: ITC; TAZ1 (169 to 185 µM) in the syringe, GB1-tagged RelA–TA2 peptide (10 to 18 µM) in the cell; 25°C; 20 mM Tris pH 8.0, 150 mM NaCl, 1 mM DTT; single-binding site model.
Assay [2] deals with B1. The assay is described as above.
Assay [3] concerns the target B7. The description is as above.
The target in assay [4] is B9. The assay is described as above.
The target in assay [5] is B8. Described as above.
Assay [6] has as its target B6. The assay is described as above.
Assay [7] deals with B9. The experiment in a line: ITC; TAZ1 (169 to 185 µM) in the syringe, GB1-tagged RelA–TA2 peptide (10 to 18 µM) in the cell; 25°C; 20 mM Tris pH 8.0, 50 mM NaCl, 1 mM DTT; single-binding site model.
Assay [8] has as its target B6. The description is as above.
For assay [9], the target named is B2. The experiment in a line: pull-down; GST-RelA fragments (20 µg) on glutathione sepharose beads with purified TAZ1 (10 µg); 20 mM Tris pH 7.5, 150 mM NaCl, 0.5 mM DTT; 4°C, 30 min; washes with 0.3% TritonX-100; SDS-PAGE.
Assay [10] has as its target B2. The experiment in a line: NMR structure; solution structure of the complex; refolded TAZ1 and RelA fragment mixed; 25°C, 20 mM Tris pH 6.5, 40 mM NaCl, 2 mM DTT; 0.7–1.2 mM protein.
Assay [11] deals with B2. The experiment in a line: ITC; TAZ1 (169 to 185 µM) in the syringe, GB1-tagged RelA–TA2 peptide (10 to 18 µM) in the cell; 25°C; 20 mM Tris pH 8.0, 50 mM NaCl, 1 mM DTT; single-binding site model.

One may read the Kd as the equilibrium constant for the complex coming apart. With B1, binding in assay [1] was characterised by a dissociation constant (Kd) of 387 nM.
As to B2, the dH was -8.3 kcal/mol in assay [2]; -5.4 kcal/mol in assay [3]; -7.8 kcal/mol in [4]; -2.4 kcal/mol in assay [5]; -7.2 kcal/mol in assay [6]; -6.5 kcal/mol in [7]. The molecule also displayed a dH in assay [8] of -5.9 kcal/mol.
Turning to B3, the binding result in assay [9] is “binds”.
Still for that read-out and setting: to B4 belongs “binds”.
Consider B5, for which the binding result in [10] is given as “binds”.
Consider B6, for which the Kd in [1] stood at 244 nM; in assay [11], 57 nM.
In assay [1], B7 returned a Kd of 1600 nM.
The same measure, in the same setting: to B8 belongs 1710 nM.
On to B9, for which the Kd in assay [1] was determined as 174 nM; in assay [11], 41.2 nM.
